What was measured:
[1] = target: T1, mouse liver microsomal G-6-Pase (Mus musculus, UniProt P35576); assay: Phosphohydrolase assay, adult mouse liver microsomes; assay type: biochemical; details: competitive inhibitor of glucose-6-P phosphohydrolysis, read-out: Vanadate, Ki
T1 construct: hepatic G-6-Pase activities of microsomes isolated from adult mouse liver; from tissue; host or cells: liver microsomes of fasted Swiss Webster mice
T1 sequence (P35576 1-357): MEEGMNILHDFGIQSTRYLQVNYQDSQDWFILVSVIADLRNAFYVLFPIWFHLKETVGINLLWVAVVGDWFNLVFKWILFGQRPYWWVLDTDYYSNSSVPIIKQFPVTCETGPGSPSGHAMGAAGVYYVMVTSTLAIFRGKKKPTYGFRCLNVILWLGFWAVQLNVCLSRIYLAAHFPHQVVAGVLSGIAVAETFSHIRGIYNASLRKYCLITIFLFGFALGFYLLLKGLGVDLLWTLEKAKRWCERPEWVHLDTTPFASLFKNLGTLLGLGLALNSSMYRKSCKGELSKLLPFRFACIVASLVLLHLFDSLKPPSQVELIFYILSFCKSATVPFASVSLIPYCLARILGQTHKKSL
Procedure: (§2) Microsomal membranes were isolated by the method of Burchell et al. supra. Samples were taken from either Swiss Webster mice which had been fasted overnight or freshly prepared homogenates of pSVLmG-6-Pase-transfected COS-1 cells. Disrupted microsomal membranes were prepared by incubating intact membranes in 0.2% deoxycholate for 20 min at 0° C.
(§3) Phosphohydrolase activity was determined essentially as described by Burchell et al. Supra. […] Sample absorbance was determined at 820 nm and is related to the amount of phosphate released using a standard curve constructed by a stock of inorganic phosphate solution.

human G-6-Pase = human G-6-Pase (Homo sapiens, UniProt P35575, A192T); details: read-out: Vanadate K1; phG-6-Pase-1-transfected COS-1 microsomes
Procedure: (§1) The functional identity of the human G-6-Pase cDNA was studied in a manner similiar to that described above with the murine G-6-Pase. Detailed biochemical studies were performed on microsomal preparations isolated from COS-1 cells transiently transfected with the phG-6-Pase-1 cDNA and compared with activities in human liver microsomes.

[2] = target: human liver microsomal G-6-Pase (Homo sapiens, UniProt P35575); details: read-out: Vanadate K1; human liver microsomes
Procedure: as §1

murine G-6-Pase = target: T2, murine G-6-Pase (Mus musculus, UniProt P35576); details: read-out: Ki values for vanadate observed in the present study; both microsomal preparations (transfected COS-1 cells and adult mouse livers)
T2 sequence (P35576 1-357): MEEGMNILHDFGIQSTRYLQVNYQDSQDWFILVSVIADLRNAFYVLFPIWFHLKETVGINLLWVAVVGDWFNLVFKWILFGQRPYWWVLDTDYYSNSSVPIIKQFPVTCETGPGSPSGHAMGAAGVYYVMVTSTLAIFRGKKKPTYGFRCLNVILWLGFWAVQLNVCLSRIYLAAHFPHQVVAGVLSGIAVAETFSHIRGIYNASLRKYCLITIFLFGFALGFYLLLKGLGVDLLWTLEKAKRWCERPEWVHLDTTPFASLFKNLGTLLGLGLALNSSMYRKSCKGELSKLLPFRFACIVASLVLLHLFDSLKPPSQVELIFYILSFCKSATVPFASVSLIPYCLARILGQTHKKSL
Procedure: COS-1 cells were grown at 37° C. in HEPES-buffered Dulbecco modified minimal essential medium supplemented with streptomycin, penicillin, and 4% fetal bovine serum. […] Mock transfections of COS-1 cultures with the pSVL vector were used as controls.
as §2, §3

[3] = target: glucose-6-P phosphohydrolase activity; details: read-out: Ki for vanadate reported; permeable hepatocytes or rat microsomes; cited from earlier work
[4] = substrate: O=P(O)(O)OC[C@H]1OC(O)[C@@H](O)[C@@H](O)[C@@H]1O; assay: cells, lysate or membranes named; details: other: disrupted adult mouse liver microsomes; mean ± SEM; pH 6.5; 30.0 °C
[5] = substrate: O=P(O)(O)OC[C@H]1OC(O)[C@H](O)[C@@H](O)[C@@H]1O; assay: cells, lysate or membranes named; details: pH 6.5, 30.0 °C
[6] = Thermal stability of glucose-6-P phosphohydrolase activity (37° C., 10 min, pH 5.0); assay type: biochemical; details: for Thermal Stability (enzyme activities remaining after heat treatment): deoxycholate (0.2%) disrupted microsomes
Procedure: Hepatic G-6-Pase is characterized by its high thermal lability; G-6-Pase is completely inactivated by incubating the microsomal preparation (or homogenate) at pH 5.0 for 10 min at 37° C., Hers, H. G., in Advances in Metabolic Disorders Vol 1 (eds Levine, R., Luft, L.), 1-44 (Academic Press, London, 1964).

[7] = Carbamyl-P:glucose phosphotransferase activity in disrupted microsomes; assay type: biochemical, mouse; details: deoxycholate-disrupted microsomes, linear region of enzyme concentration curves
Procedure: Phosphotransferase activity was determined by a modification of the method described by Jorgenson and Nordlie, supra. Reaction mixture (10 μl) contained 100 mM HEPES buffer, pH 6.5, 50 mM glucose, […] D-glucose (10^5 cpm/reaction, 256 mCi/mmol, ICN Biochemicals, Irvine, Calif.), 4 mM carbamyl-P, and deoxycholate-disrupted microsomal proteins. […] The samples were then centrifuged at 10,000×g for 5 min, and 2 to 4 μl of supernatant applied to a PEI-cellulose plate (J. T. Baker, Inc., Phillipsburg, N.J.). Glucose-6-P was separated from glucose by thin-layer chromatography developed in water. Spots were quantitated on an AMBIS Radioanalytic Imaging System (San Diego, Calif.).

[8] = pH profile of glucose-6-P phosphohydrolase activity in disrupted microsomes; assay type: biochemical, mouse
[9] = Phosphohydrolase activity of site-directed human G-6-Pase mutants in transfected cells; assay type: biochemical; details: arginine to cysteine substitution; pSVL constructs in transfected cells
Description: The two outside PCR primers were 01 (5'-[…]-3' (Seq. ID No.:29), nucleotides 77 to 96) and 02 (5'-[…]-3' (Seq. ID No.:30), nucleotides 1153 to 1130). […] 01 and 02 contain an additional XhoI or XbaI linker, respectively. […] The amplified fragments were digested with XhoI and XbaI and ligated into a pSVL vector. All constructs were confirmed by DNA sequencing.

[O]=[V]([OH])([OH])[OH] [Vanadate]
Ki [1]: 330 µM
Ki (human G-6-Pase): 1680 µM
Ki [2]: 1610 µM
Ki (murine G-6-Pase): 330 to 340 µM
Ki [3]: 1.5 µM

B1: mouse liver microsomal G-6-Pase (Mus musculus) (protein)
chain: MEEGMNILHDFGIQSTRYLQVNYQDSQDWFILVSVIADLRNAFYVLFPIWFHLKETVGINLLWVAVVGDWFNLVFKWILFGQRPYWWVLDTDYYSNSSVPIIKQFPVTCETGPGSPSGHAMGAAGVYYVMVTSTLAIFRGKKKPTYGFRCLNVILWLGFWAVQLNVCLSRIYLAAHFPHQVVAGVLSGIAVAETFSHIRGIYNASLRKYCLITIFLFGFALGFYLLLKGLGVDLLWTLEKAKRWCERPEWVHLDTTPFASLFKNLGTLLGLGLALNSSMYRKSCKGELSKLLPFRFACIVASLVLLHLFDSLKPPSQVELIFYILSFCKSATVPFASVSLIPYCLARILGQTHKKSL
Km [4]: 670 µM
Km ([5]; other: disrupted adult mouse liver microsomes, mean ± SEM): 680 µM
Km ([5]; other: intact adult mouse liver microsomes): 3300 µM

B2: pSVLmG-6-Pase-Transfacted COS: recombinant murine G-6-Pase in microsomes of COS-1 cells transfected with pSVLmG-6-Pase (protein, UniProt P35576 1-357, looked up)
Glucose-6-phosphatase …: MEEGMNILHDFGIQSTRYLQVNYQDSQDWFILVSVIADLRNAFYVLFPIWFHLKETVGINLLWVAVVGDWFNLVFKWILFGQRPYWWVLDTDYYSNSSVPIIKQFPVTCETGPGSPSGHAMGAAGVYYVMVTSTLAIFRGKKKPTYGFRCLNVILWLGFWAVQLNVCLSRIYLAAHFPHQVVAGVLSGIAVAETFSHIRGIYNASLRKYCLITIFLFGFALGFYLLLKGLGVDLLWTLEKAKRWCERPEWVHLDTTPFASLFKNLGTLLGLGLALNSSMYRKSCKGELSKLLPFRFACIVASLVLLHLFDSLKPPSQVELIFYILSFCKSATVPFASVSLIPYCLARILGQTHKKSL
modifications: in COS-1 microsomes
notes: recombinant murine G-6-Pase in microsomes of COS-1 cells transfected with pSVLmG-6-Pase
Thermal Stability (enzyme activities remaining after heat treatment) ([6]; 37° C. for 10 min at pH 5.0, murine study): 1.6%
glucose-6-P phosphohydrolase activity after incubation at 37° C. for 10 min at pH 5.0 (in words) ([6]; murine study): abolished
Phosphotransferase, Carbamyl-P: Glucose [7]: 0.22 μmol/min/mg of microsomal prot
pH optimum of glucose-6-P phosphohydrolase activity [8]: ~6.5

B3: human G-6-Pase (Homo sapiens; A192T) (protein)
chain: MEEGMNVLHDFGIQSTHYLQVNYQDSQDWFILVSVIADLRNAFYVLFPIWFHLQEAVGIKLLWVAVIGDWLNLVFKWILFGQRPYWWVLDTDYYSNTSVPLIKQFPVTCETGPGSPSGHAMGTAGVYYVMVTSTLSIFQGKIKPTYRFRCLNVILWLGFWAVQLNVCLSRIYLAAHFPHQVVAGVLSGIAVTETFSHIHSIYNASLKKYFLITFFLFSFAIGFYLLLKGLGVDLLWTLEKAQRWCEQPEWVHIDTTPFASLLKNLGTLFGLGLALNSSMYRESCKGKLSKWLPFRLSSIVASLVLLHVFDSLKPPSQVELVFYVLSFCKSAVVPLASVSVIPYCLAQVLGQPHKKSL
Km ([5]; other: phG-6-Pase-1-transfected COS-1 microsomes): 1770 ± 130 µM

B4: phG-6-Pase-1-COS: recombinant human G-6-Pase in microsomes of COS-1 cells transiently transfected with phG-6-Pase-1 cDNA (protein, UniProt P35575 1-357, looked up)
Glucose-6-phosphatase …: MEEGMNVLHDFGIQSTHYLQVNYQDSQDWFILVSVIADLRNAFYVLFPIWFHLQEAVGIKLLWVAVIGDWLNLVFKWILFGQRPYWWVLDTDYYSNTSVPLIKQFPVTCETGPGSPSGHAMGTAGVYYVMVTSTLSIFQGKIKPTYRFRCLNVILWLGFWAVQLNVCLSRIYLAAHFPHQVVAGVLSGIAVAETFSHIHSIYNASLKKYFLITFFLFSFAIGFYLLLKGLGVDLLWTLEKAQRWCEQPEWVHIDTTPFASLLKNLGTLFGLGLALNSSMYRESCKGKLSKWLPFRLSSIVASLVLLHVFDSLKPPSQVELVFYVLSFCKSAVVPLASVSVIPYCLAQVLGQPHKKSL
modifications: in COS-1 microsomes
notes: recombinant human G-6-Pase in microsomes of COS-1 cells transiently transfected with phG-6-Pase-1 cDNA
Thermal Stability (enzyme activities remaining after heat treatment) ([6]; 10 min at 37° C., 50 mM cacodylate buffer pH 5.0, human study): 6.0%
glucose-6-P phosphohydrolase activity after incubation at 37° C. for 10 min at pH 5.0 (in words) ([6]; human study): virtually abolished

B5: human liver microsomal G-6-Pase (Homo sapiens) (protein)
chain: MEEGMNVLHDFGIQSTHYLQVNYQDSQDWFILVSVIADLRNAFYVLFPIWFHLQEAVGIKLLWVAVIGDWLNLVFKWILFGQRPYWWVLDTDYYSNTSVPLIKQFPVTCETGPGSPSGHAMGTAGVYYVMVTSTLSIFQGKIKPTYRFRCLNVILWLGFWAVQLNVCLSRIYLAAHFPHQVVAGVLSGIAVAETFSHIHSIYNASLKKYFLITFFLFSFAIGFYLLLKGLGVDLLWTLEKAQRWCEQPEWVHIDTTPFASLLKNLGTLFGLGLALNSSMYRESCKGKLSKWLPFRLSSIVASLVLLHVFDSLKPPSQVELVFYVLSFCKSAVVPLASVSVIPYCLAQVLGQPHKKSL
Km ([5]; other: human liver microsomes): 1710 ± 110 µM

B6: G-6-Pase-Cys^295: human G-6-Pase mutant, arginine 295 changed to cysteine (protein, UniProt P35575 1-357, looked up, variant R295C)
Glucose-6-phosphatase …: MEEGMNVLHDFGIQSTHYLQVNYQDSQDWFILVSVIADLRNAFYVLFPIWFHLQEAVGIKLLWVAVIGDWLNLVFKWILFGQRPYWWVLDTDYYSNTSVPLIKQFPVTCETGPGSPSGHAMGTAGVYYVMVTSTLSIFQGKIKPTYRFRCLNVILWLGFWAVQLNVCLSRIYLAAHFPHQVVAGVLSGIAVAETFSHIHSIYNASLKKYFLITFFLFSFAIGFYLLLKGLGVDLLWTLEKAQRWCEQPEWVHIDTTPFASLLKNLGTLFGLGLALNSSMYRESCKGKLSKWLPFCLSSIVASLVLLHVFDSLKPPSQVELVFYVLSFCKSAVVPLASVSVIPYCLAQVLGQPHKKSL
G-6-Pase phosphohydrolase activity of mutant [9]: abolished

B7: G-6-Pase-Cys^83: human G-6-Pase mutant, arginine 83 changed to cysteine (protein, UniProt P35575 1-357, looked up, variant R83C)
Glucose-6-phosphatase …: MEEGMNVLHDFGIQSTHYLQVNYQDSQDWFILVSVIADLRNAFYVLFPIWFHLQEAVGIKLLWVAVIGDWLNLVFKWILFGQCPYWWVLDTDYYSNTSVPLIKQFPVTCETGPGSPSGHAMGTAGVYYVMVTSTLSIFQGKIKPTYRFRCLNVILWLGFWAVQLNVCLSRIYLAAHFPHQVVAGVLSGIAVAETFSHIHSIYNASLKKYFLITFFLFSFAIGFYLLLKGLGVDLLWTLEKAQRWCEQPEWVHIDTTPFASLLKNLGTLFGLGLALNSSMYRESCKGKLSKWLPFRLSSIVASLVLLHVFDSLKPPSQVELVFYVLSFCKSAVVPLASVSVIPYCLAQVLGQPHKKSL
G-6-Pase phosphohydrolase activity of mutant [9]: abolished
